Measured values as given in paper PMC3983244, “Location of Dual Sites in E. coli FtsZ Important for Degradation by ClpXP; One at the C-Terminus and One in the Disordered Linker” (PLoS ONE, 2014).
Positions count from the first letter of the chain named. Numbers in names are those of the source. One block for each molecule: values may come before it.

How the values were obtained:
[1] = target: FtsZ(K380A) (E. coli) (UniProt P0A9A6)
[2] = target: FtsZ(Δ380-383) (E. coli) (UniProt P0A9A6)
[3] = target: E. coli FtsZ (wild type) (E. coli) (UniProt P0A9A6)
[4] = target: FtsZ(Δ375-383) (E. coli) (UniProt P0A9A6)
[5] = target: FtsZ(R379E) (E. coli) (UniProt P0A9A6)
[6] = target: FtsZ(F377A) (E. coli) (UniProt P0A9A6)
[7] = target: FtsZ(P375G) (E. coli) (UniProt P0A9A6)
[8] = target: E. coli FtsZ (wild type) (E. coli) (UniProt P0A9A6); remark: listed apart in the source
[9] = target: the molecule itself; test: 90° light scattering; 8 µM FtsZ wild type or mutant in assembly buffer, polymerisation after addition of 1 mM GTP; self-association into polymers
[10] = target: T1, ClpX(E185Q) (E. coli, UniProt P0A6H1 1-424, E185Q); test: co-sedimentation; 250 pmol FtsZ wild type or mutant polymerised with 2 mM GTP in assembly buffer (50 mM MES pH 6.5, 50 mM KCl, 10 mM MgCl2) with acetate kinase and acetyl phosphate; 1.5, 5.0 or 12.5 pmol ClpX(E185Q) and 4 mM ATP added, 25 µl, 10 min; 129,000×g 30 min; SDS-PAGE, Coomassie, densitometry; background without GTP subtracted; conditions: both partners purified
T1 construct: ClpX, Escherichia coli, ATP hydrolysis defective mutant E185Q; Concentrations are reported for ClpX hexamers; also called ATP hydrolysis defective mutant of ClpX

[11] = target: the molecule itself; test: negative-stain electron microscopy; FtsZ mutant proteins (5 µM) incubated with GTP, negative staining with uranyl acetate; filaments

Molecule: E. coli ClpX (wild type) (from UniProt P0A6H1 1-424) (enzyme)
reduction of the rate of degradation by ClpXP against wild type FtsZ, in both the presence and absence of GTP [1]: 55% | reduction of the rate of degradation by ClpXP against wild type FtsZ, in the absence of GTP [2]: 65% | reduction of the rate of degradation by ClpXP against wild type FtsZ, in the presence of GTP [2]: 75% | rate of degradation of fluorescent FtsZ (10 µM) by ClpXP (1 µM) in the absence of GTP, ultrafiltration assay [3]: 0.11 min⁻¹ | rate of degradation of fluorescent FtsZ (10 µM) by ClpXP (1 µM) in the presence of GTP, ultrafiltration assay [3]: 0.2 min⁻¹ | reduction of the rate of degradation by ClpXP against wild type FtsZ, in the absence of GTP [4]: 65% | reduction of the rate of degradation by ClpXP against wild type FtsZ, in the presence of GTP [4]: 75% | reduction of the rate of degradation by ClpXP against wild type FtsZ, in both the presence and absence of GTP [5]: 75% | reduction of the rate of degradation by ClpXP against wild type FtsZ, in the presence of GTP (no similar reduction without GTP) [6]: 50% | reduction of the rate of degradation by ClpXP against wild type FtsZ, in the presence of GTP (no similar reduction without GTP) [7]: 50%

B1: MinC (natural protein)
chain: MSNTPIELKGSSFTLSVVHLHEAEPKVIHQALEDKIAQAPAFLKHAPVVLNVSALEDPVNWSAMHKAVSATGLRVIGVSGCKDAQLKAEIEKMGLPILTEGKEKAPRPAPTPQAPAQNTTPVTKTRLIDTPVRSGQRIYAPQCDLIVTSHVSAGAELIADGNIHVYGMMRGRALAGASGDRETQIFCTNLMAELVSIAGEYWLSDQIPAEFYGKAARLQLVENALTVQPLN
inhibition of degradation of fluorescent FtsZ (5 µM, with GTP) by ClpXP (0.5 µM) at 2, 5, 10 and 20 µM MinC; the pair that is blocked: FtsZ with ClpX (ClpXP) [8]: 80%

B2: FtsZ(352AAA, Δ375-383) (domain or fragment, E. coli, UniProt P0A9A6 1-374, looked up)
chain: MFEPMELTNDAVIKVIGVGGGGGNAVEHMVRERIEGVEFFAVNTDAQALRKTAVGQTIQIGSGITKGLGAGANPEVGRNAADEDRDALRAALEGADMVFIAAGMGGGTGTGAAPVVAEVAKDLGILTVAVVTKPFNFEGKKRMAFAEQGITELSKHVDSLITIPNDKLLKVLGRGISLLDAFGAANDVLKGAVQGIAELITRPGLMNVDFADVRTVMSEMGYAMMGSGVASGEDRAEEAAEMAISSPLLEDIDLSGARGVLVNITAGFDLRLDEFETVGNTIRAFASDNATVVIGTSLDPDMNDELRVTVVATGIGMDKRPEITLVTNKQVQQPVMDRYQQHGMAPLTQEQAAAAKVVNDNAPQTAKEPDYLDI
notes: also called double mutant; source: E. coli BL21 (λDE3), purified like wild type FtsZ
binding result [9]: binds | binding result [10]: binds

B5: FtsZ(R379E) (natural protein, E. coli, UniProt P0A9A6 1-383, looked up)
chain: MFEPMELTNDAVIKVIGVGGGGGNAVEHMVRERIEGVEFFAVNTDAQALRKTAVGQTIQIGSGITKGLGAGANPEVGRNAADEDRDALRAALEGADMVFIAAGMGGGTGTGAAPVVAEVAKDLGILTVAVVTKPFNFEGKKRMAFAEQGITELSKHVDSLITIPNDKLLKVLGRGISLLDAFGAANDVLKGAVQGIAELITRPGLMNVDFADVRTVMSEMGYAMMGSGVASGEDRAEEAAEMAISSPLLEDIDLSGARGVLVNITAGFDLRLDEFETVGNTIRAFASDNATVVIGTSLDPDMNDELRVTVVATGIGMDKRPEITLVTNKQVQQPVMDRYQQHGMAPLTQEQKPVAKVVNDNAPQTAKEPDYLDIPAFLEKQAD
notes: FtsZ, Escherichia coli, substitution R379E; source: E. coli BL21 (λDE3), purified like wild type FtsZ
binding result [11]: binds

B7: FtsZ(K380A) (natural protein, E. coli, UniProt P0A9A6 1-383, looked up)
chain: B5 chain with E379R, K380A
notes: FtsZ, Escherichia coli, substitution K380A; source: E. coli BL21 (λDE3), purified like wild type FtsZ
binding result [9]: binds

B9: FtsZ(Δ380-383) (domain or fragment, E. coli, UniProt P0A9A6 1-379, looked up)
chain: MFEPMELTNDAVIKVIGVGGGGGNAVEHMVRERIEGVEFFAVNTDAQALRKTAVGQTIQIGSGITKGLGAGANPEVGRNAADEDRDALRAALEGADMVFIAAGMGGGTGTGAAPVVAEVAKDLGILTVAVVTKPFNFEGKKRMAFAEQGITELSKHVDSLITIPNDKLLKVLGRGISLLDAFGAANDVLKGAVQGIAELITRPGLMNVDFADVRTVMSEMGYAMMGSGVASGEDRAEEAAEMAISSPLLEDIDLSGARGVLVNITAGFDLRLDEFETVGNTIRAFASDNATVVIGTSLDPDMNDELRVTVVATGIGMDKRPEITLVTNKQVQQPVMDRYQQHGMAPLTQEQKPVAKVVNDNAPQTAKEPDYLDIPAFLR
notes: also called deletion mutant that lacks the C-terminal four amino acid variable region; source: E. coli BL21 (λDE3), purified like wild type FtsZ
binding result [9]: binds

More lines, main results first:

binding result [10]: binds
B3: FtsZ(Δ375-383) (domain or fragment, E. coli, UniProt P0A9A6 1-374, looked up)
chain: B2 chain with A352K, A353P, A354V
notes: Alexa-labelled in the degradation reactions, unlabelled in co-sedimentation; also called deletion mutant lacking the C-terminal nine amino acids; source: E. coli BL21 (λDE3), purified like wild type FtsZ

binding result [10]: binds
B4: E. coli FtsZ (wild type) (natural protein, UniProt P0A9A6 1-383, looked up)
chain: B5 chain with E379R
notes: FtsZ, Escherichia coli, wild type; Unlabelled in the co-sedimentation assay; labelled with Alexa fluor succinimidyl ester (0.5-5.0 mol/mol) in the degradation reactions; Assembles into polymers with GTP; also called wild type FtsZ
binding result [9]: binds

binding result [10]: binds
B6: FtsZ(352AAA) (natural protein, E. coli, UniProt P0A9A6 1-383, looked up)
chain: B5 chain with K352A, P353A, V354A, E379R
notes: source: E. coli BL21 (λDE3), purified like wild type FtsZ
binding result [11]: binds

binding result [10]: binds
B8: FtsZ(356AAA) (natural protein, E. coli, UniProt P0A9A6 1-383, looked up)
chain: B5 chain with K356A, V357A, V358A, E379R
notes: as for B6
binding result [9]: binds
